Laboratory results as given in the supplement of paper PMC12764529.
± gives the half width of the 95% confidence interval.

Tests used:
[1] = folding stability dG unfold from trypsin proteolysis; higher = more stable
How it was run: (§1)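 Unfolding free energy was derived, per protease or combined, by relating Bayesian-fitted K50 values from sequencing counts to a sequence-predicted unfolded-state K50 and a shared folded-state K50. The underlying digests exposed cysteine-free mini-proteins under 80 residues, in a PA-tagged cDNA display construct, to trypsin and chymotrypsin at 11 threefold-diluted concentrations and to a no-protease condition. A filter kept only designs with AlphaFold2 dimer inter-PAE above 15.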

[2] = folding stability dG unfold from chymotrypsin proteolysis; higher = more stable
How it was run: as §1

[3] = folding stability dG unfold (combined trypsin and chymotrypsin); higher = more stable
How it was run: as §1

| Sequence | folding stability dG unfold [1] [kcal/mol] | folding stability dG unfold [2] [kcal/mol] | folding stability dG unfold [3] [kcal/mol] |
| --- | --- | --- | --- |
| SSVTIPFKITDPNTTIAEIAERVRELLPESLGELSVTVTFSDGTTLNVTPGENLSKYYSPDDELTITVDAPS [r1_56_JUSTAS] | 1.29 ± 0.034 | 1.23 ± 0.11 | 1.27 ± 0.11 |
| SSVTLVLEKPLPSGKRLVVVTTLKPEPARGTVRLDVTTTTYTFSKTENGEITTSSTTSTSTETVSPEELLSA [r9_1137_JUSTAS] | 2.53 ± 0.13 | 2.48 ± 0.18 | 2.49 ± 0.29 |
| STLTLEELKERFPELSEEELEALAERLAALPAPVTVTVEVRPAPPPPVEERELSEEELLEARLRPGERVESA [r9_1024_TrROS_Hall] | 0.624 ± 0.06 | 1.94 ± 0.056 | 1.51 ± 0.098 |
| STRTLTVVVEAPTLEEALAAAKALAPPGWKVTVTVERREVVDPETGETRTVLVVTVTIEPAPPPPPAEEKSA [r9_962_TrROS_Hall] | 2.11 ± 0.028 | 3.16 ± 0.083 | 2.86 ± 0.091 |
| SVDPAKEKVVLRFTVTFPVPPELGPITADELAALVREILEAFGYEIVSVTVTVEGDRVTVTVEAVFDKRGSA [r9_1134_TrMRF] | 3.76 ± 0.11 | 5.21 ± 0.086 | 5.01 ± 0.091 |
| SVEELAKKLAELFPNVKVTVTEEEIDGKKVKTIRIENKKTGKTYEITVLPNGEILITDSNGKKFSLEELLSA [r9_1176_TrROS_Hall] | 4.26 ± 0.27 | 4.91 ± 0.31 | 4.86 ± 0.25 |
| SVKVEVSISYDPETNTITITVRVYYKDENGNWTEVATITITIKIELPPPPPKTITLKPGVKTKEEAKKALSA [r9_888_TrROS_Hall] | 2.63 ± 0.28 | 3.54 ± 0.26 | 3.01 ± 0.23 |
| SVNPATQVVTVTREVTYPVPPSQGPISEEEAREAVEAELAARGWTLREVRVEYEGDTVTVTAVAERPAAASA [r9_1134_JUSTAS] | 1.04 ± 0.018 | 1.13 ± 0.053 | 1.11 ± 0.038 |
| SVPADAKPGVVPERVVLVIVVPPELLDEDGRLRPENLEIAAGEAAEAARKLREAFPDVPIEDVGVVVVEGSA [r9_943_TrMRF] | 0.869 ± 0.02 | 0.466 ± 0.029 | 0.705 ± 0.046 |
| SVPPNAPPGMKPKRVEIFIFIPPELYDKDGKISPEQLKKAKGMAKMIKLRLREQYPGYGIDDVKVHIMPGSA [r9_943_TrROS] | 2.76 ± 0.052 | 3.303 ± 0.022 | 3.14 ± 0.097 |
| SVPYGVTDVTFEPEKNTATVTAPRPDPSAPVAVGDKKGESVSVTSEVDTAAGTLTVTVPTTAPGNVTVDVPS [r1_138_JUSTAS] | 0.57 ± 0.041 | -0.934 ± 0.54 | 0.133 ± 0.12 |
| SVYNPNNPNIPTKLTVTIPVPEEVVAAGDTAAAEAAAEATAAALAPEGWRVTSVSFPRETGTMTVTLTRPSA [r9_75_JUSTAS] | 1.32 ± 0.022 | 1.16 ± 0.11 | 1.33 ± 0.063 |
| SWMFMIEVHDPKNGKERTVPINMPKEQVLDQIREAQEKGPRIEIWGIPPNAIKEIAEEAKLPVEIHPMPPSA [r9_1207_TrROS] | 0.012 ± 0.24 | 0.409 ± 0.15 | 0.148 ± 0.14 |
| SWNLRLEIEEVEIEPSDNWIIIMVRVEIEGRNPDDPNKPRPVFEVWVMIPIPLPPPKPKPDPDDPAAAKDSA [r9_357_TrROS] | 2.29 ± 0.25 | 3.5 ± 0.15 | 2.8 ± 0.43 |
| SYSIDTSKIEEAAAALPPNAVAELELTANVPESGFTLKLKVTITVDPAGKVTRITFTDPATGKKIATVDVGS [r1_165_JUSTAS] | 2.47 ± 0.069 | 1.52 ± 0.11 | 2.1 ± 0.12 |
| SYSTSTVTVPVAADEIDKAKEIAKELAEKLPPNSRVTFNMPAPDGSTFTVEVTVNPDGTITVTVSDSLPAVS [r1_350_JUSTAS] | 1.55 ± 0.041 | 0.986 ± 0.13 | 1.34 ± 0.087 |
| SYTLEFEDITLKPVEPGTKISIPGYVKYDGVLYKVTEVTYDPEKGTITITIKVEPEGKPKTLTITIPIPPPS [r1_47_JUSTAS] | 2.24 ± 0.11 | 1.85 ± 0.086 | 2.06 ± 0.19 |
| TTVTTPKNGLININLTDKKGNKYTFTAPVKDPVETLEKLKKLIKDLFPEYKDVKVKVVSVDGINIKVVVDIS [r1_389_TrMRF] | 2.66 ± 0.11 | 3.57 ± 0.061 | 3.26 ± 0.1 |
| TWTFTIMIPIKPEIREALDSGKPLPIEELVDWIKDEIARMFGFKDVTVKGIEIHPDPNGEIMVMVTIEFKPS [r1_290_TrROS] | 4.29 ± 0.28 | 4.64 ± 0.12 | 4.62 ± 0.12 |
| WKIVEITDIEPDPDGWLEIKITIEPPEPGDPIKIMIFHPNQFHEFEIDPESPEIEIRIPPGFDNLHIFIYVS [r1_428_TrROS] | 2.82 ± 0.24 | 4.42 ± 0.2 | 3.9 ± 0.57 |
